Source: US20190177417A1 (BIOATLA, published 2019)

T1: Axl protein (human, UniProt P30530 26-451)
T1 construct: extracellular domain; also called human Axl; hAxl
T1 sequence (looked up): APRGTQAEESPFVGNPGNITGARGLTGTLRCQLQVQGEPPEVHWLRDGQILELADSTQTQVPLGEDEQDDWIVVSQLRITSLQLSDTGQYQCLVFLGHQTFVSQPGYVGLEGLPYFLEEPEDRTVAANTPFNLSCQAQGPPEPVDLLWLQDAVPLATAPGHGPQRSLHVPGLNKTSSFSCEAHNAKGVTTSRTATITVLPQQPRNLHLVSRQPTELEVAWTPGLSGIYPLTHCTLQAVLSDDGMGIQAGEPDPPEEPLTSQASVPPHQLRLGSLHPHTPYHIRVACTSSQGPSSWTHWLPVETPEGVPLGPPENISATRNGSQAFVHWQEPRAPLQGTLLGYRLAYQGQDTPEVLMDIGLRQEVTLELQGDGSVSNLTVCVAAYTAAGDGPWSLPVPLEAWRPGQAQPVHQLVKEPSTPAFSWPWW

B1: HC-S103Q (antibody, V domains shown)
VH: EVQLVQSGAEVKKPGATVKISCKVSGYSFTGHTMNWIRQPPGKGLEWIGLIKPSNGGTSYNQKFKGRVTISADKSISTAYLQWSSLKASDTAMYYCAHGHYEQYFAMDYWGQGTLVTVSS
VL: DIQMTQSPSSLSASVGDRVTITCKASQDVSSAVAWYQQKPGQAPRLLIYWASTRHTGVPSRFSGSGSGTEFTLTISSLQPDDFATYYCQEHFSTPLTFGQGTKVEIK
B2: HC-E102A (antibody, V domains shown)
VH: EVQLVQSGAEVKKPGATVKISCKVSGYSFTGHTMNWIRQPPGKGLEWIGLIKPSNGGTSYNQKFKGRVTISADKSISTAYLQWSSLKASDTAMYYCAHGHYASYFAMDYWGQGTLVTVSS
VL: DIQMTQSPSSLSASVGDRVTITCKASQDVSSAVAWYQQKPGQAPRLLIYWASTRHTGVPSRFSGSGSGTEFTLTISSLQPDDFATYYCQEHFSTPLTFGQGTKVEIK
B3: HC-F105N (antibody, V domains shown)
VH: EVQLVQSGAEVKKPGATVKISCKVSGYSFTGHTMNWIRQPPGKGLEWIGLIKPSNGGTSYNQKFKGRVTISADKSISTAYLQWSSLKASDTAMYYCAHGHYESYNAMDYWGQGTLVTVSS
VL: DIQMTQSPSSLSASVGDRVTITCKASQDVSSAVAWYQQKPGQAPRLLIYWASTRHTGVPSRFSGSGSGTEFTLTISSLQPDDFATYYCQEHFSTPLTFGQGTKVEIK
B4: HC-E102D (antibody, V domains shown)
VH: EVQLVQSGAEVKKPGATVKISCKVSGYSFTGHTMNWIRQPPGKGLEWIGLIKPSNGGTSYNQKFKGRVTISADKSISTAYLQWSSLKASDTAMYYCAHGHYDSYFAMDYWGQGTLVTVSS
VL: DIQMTQSPSSLSASVGDRVTITCKASQDVSSAVAWYQQKPGQAPRLLIYWASTRHTGVPSRFSGSGSGTEFTLTISSLQPDDFATYYCQEHFSTPLTFGQGTKVEIK
B5: HC-Y101N (antibody, V domains shown)
VH: EVQLVQSGAEVKKPGATVKISCKVSGYSFTGHTMNWIRQPPGKGLEWIGLIKPSNGGTSYNQKFKGRVTISADKSISTAYLQWSSLKASDTAMYYCAHGHNESYFAMDYWGQGTLVTVSS
VL: DIQMTQSPSSLSASVGDRVTITCKASQDVSSAVAWYQQKPGQAPRLLIYWASTRHTGVPSRFSGSGSGTEFTLTISSLQPDDFATYYCQEHFSTPLTFGQGTKVEIK
B6: HC-E102F (antibody, V domains shown)
VH: EVQLVQSGAEVKKPGATVKISCKVSGYSFTGHTMNWIRQPPGKGLEWIGLIKPSNGGTSYNQKFKGRVTISADKSISTAYLQWSSLKASDTAMYYCAHGHYFSYFAMDYWGQGTLVTVSS
VL: DIQMTQSPSSLSASVGDRVTITCKASQDVSSAVAWYQQKPGQAPRLLIYWASTRHTGVPSRFSGSGSGTEFTLTISSLQPDDFATYYCQEHFSTPLTFGQGTKVEIK
B7: HC-F105T (antibody, V domains shown)
VH: EVQLVQSGAEVKKPGATVKISCKVSGYSFTGHTMNWIRQPPGKGLEWIGLIKPSNGGTSYNQKFKGRVTISADKSISTAYLQWSSLKASDTAMYYCAHGHYESYTAMDYWGQGTLVTVSS
VL: DIQMTQSPSSLSASVGDRVTITCKASQDVSSAVAWYQQKPGQAPRLLIYWASTRHTGVPSRFSGSGSGTEFTLTISSLQPDDFATYYCQEHFSTPLTFGQGTKVEIK
B8: HC-Y104P (antibody, V domains shown)
VH: EVQLVQSGAEVKKPGATVKISCKVSGYSFTGHTMNWIRQPPGKGLEWIGLIKPSNGGTSYNQKFKGRVTISADKSISTAYLQWSSLKASDTAMYYCAHGHYESPFAMDYWGQGTLVTVSS
VL: DIQMTQSPSSLSASVGDRVTITCKASQDVSSAVAWYQQKPGQAPRLLIYWASTRHTGVPSRFSGSGSGTEFTLTISSLQPDDFATYYCQEHFSTPLTFGQGTKVEIK
B9: HC-T033I (antibody, V domains shown)
VH: EVQLVQSGAEVKKPGATVKISCKVSGYSFTGHIMNWIRQPPGKGLEWIGLIKPSNGGTSYNQKFKGRVTISADKSISTAYLQWSSLKASDTAMYYCAHGHYESYFAMDYWGQGTLVTVSS
VL: DIQMTQSPSSLSASVGDRVTITCKASQDVSSAVAWYQQKPGQAPRLLIYWASTRHTGVPSRFSGSGSGTEFTLTISSLQPDDFATYYCQEHFSTPLTFGQGTKVEIK
B10: HC-Y104E (antibody, V domains shown)
VH: EVQLVQSGAEVKKPGATVKISCKVSGYSFTGHTMNWIRQPPGKGLEWIGLIKPSNGGTSYNQKFKGRVTISADKSISTAYLQWSSLKASDTAMYYCAHGHYESEFAMDYWGQGTLVTVSS
VL: DIQMTQSPSSLSASVGDRVTITCKASQDVSSAVAWYQQKPGQAPRLLIYWASTRHTGVPSRFSGSGSGTEFTLTISSLQPDDFATYYCQEHFSTPLTFGQGTKVEIK
B11: HC-Y104C (antibody, V domains shown)
VH: EVQLVQSGAEVKKPGATVKISCKVSGYSFTGHTMNWIRQPPGKGLEWIGLIKPSNGGTSYNQKFKGRVTISADKSISTAYLQWSSLKASDTAMYYCAHGHYESCFAMDYWGQGTLVTVSS
VL: DIQMTQSPSSLSASVGDRVTITCKASQDVSSAVAWYQQKPGQAPRLLIYWASTRHTGVPSRFSGSGSGTEFTLTISSLQPDDFATYYCQEHFSTPLTFGQGTKVEIK
B12: HC-H100P (antibody, V domains shown)
VH: EVQLVQSGAEVKKPGATVKISCKVSGYSFTGHTMNWIRQPPGKGLEWIGLIKPSNGGTSYNQKFKGRVTISADKSISTAYLQWSSLKASDTAMYYCAHGPYESYFAMDYWGQGTLVTVSS
VL: DIQMTQSPSSLSASVGDRVTITCKASQDVSSAVAWYQQKPGQAPRLLIYWASTRHTGVPSRFSGSGSGTEFTLTISSLQPDDFATYYCQEHFSTPLTFGQGTKVEIK
B13: HC-E102I (antibody, V domains shown)
VH: EVQLVQSGAEVKKPGATVKISCKVSGYSFTGHTMNWIRQPPGKGLEWIGLIKPSNGGTSYNQKFKGRVTISADKSISTAYLQWSSLKASDTAMYYCAHGHYISYFAMDYWGQGTLVTVSS
VL: DIQMTQSPSSLSASVGDRVTITCKASQDVSSAVAWYQQKPGQAPRLLIYWASTRHTGVPSRFSGSGSGTEFTLTISSLQPDDFATYYCQEHFSTPLTFGQGTKVEIK
B14: HC-F105S (antibody, V domains shown)
VH: EVQLVQSGAEVKKPGATVKISCKVSGYSFTGHTMNWIRQPPGKGLEWIGLIKPSNGGTSYNQKFKGRVTISADKSISTAYLQWSSLKASDTAMYYCAHGHYESYSAMDYWGQGTLVTVSS
VL: DIQMTQSPSSLSASVGDRVTITCKASQDVSSAVAWYQQKPGQAPRLLIYWASTRHTGVPSRFSGSGSGTEFTLTISSLQPDDFATYYCQEHFSTPLTFGQGTKVEIK

How the values were obtained:
Axl protein [1] = molecular target: T1, Axl protein; experiment: ELISA, 1:3 dilution, pH 6.0 over pH 7.4
Axl protein [2] = molecular target: T1, Axl protein; experiment: ELISA, 1:9 dilution, pH 6.0 over pH 7.4

| Binder | Affinity ELISA CPE mutant ratio (1:3, pH 6.0/7.4) (Axl protein [1]) [ratio] | Affinity ELISA CPE mutant ratio (1:9, pH 6.0/7.4) (Axl protein [2]) [ratio] |
| --- | --- | --- |
| B1 | 0.912 | 2.26 |
| B2 | 1.54 | 1.69 |
| B3 | 2.36 | 2.64 |
| B4 | 2.67 | 2.85 |
| B5 | 2.17 | 2.91 |
| B6 | 1.88 | 1.36 |
| B7 | 3.46 | 4.02 |
| B8 | 2.54 | 2.42 |
| B9 | 1.59 | 1 |
| B10 | 1.32 | 1.8 |
| B11 | 1.84 | 1.74 |
| B12 | 2.58 | 1.18 |
| B13 | 2.02 | 1.7 |
| B14 | 3.9 | 4.54 |
